B1: CPEB3 Ribozyme (parent)
chain: GGGGGCCACAGCAGAAGCGUUCACGUCGCGGCCCCUGUCAGAUUCUGGUGAAUCUGCGAAUUCUGCUGU

Variants of: B1
Assay: self-cleavage, relative activity (ratio to wild type); higher = more cleavage; co-transcriptional

Row | Variant | self-cleavage
1 | A13C G25U | 0.104
2 | A13C G25A | 0.129
3 | C12U A40U | 0.643
4 | C12U C29A | 0.451
5 | A13G | 0.97
6 | A13C | 0.913
7 | C12U G48C | 0.972
8 | C12U G48A | 0.963
9 | A13G A15U | 0.547
10 | A13C A40G | 0.738
11 | A13G A52U | 0.989
12 | C12U U61C | 0.579
13 | C12U U61G | 0.644
14 | A13C A15U | 0.145
15 | A13C A15C | 0.264
16 | A13C U61A | 0.459
17 | A13C U61G | 0.406
18 | A13C U53G | 0.63
19 | A13C U53C | 0.352
20 | A13C C29G | 0.141
21 | A13G A16U | 0.714

Row | Variant | self-cleavage
22 | A13G A16C | 0.175
23 | A13G A16G | 0.855
24 | A13C G65U | 0.41
25 | C12U U49A | 1.02
26 | A13C U36A | 0.175
27 | A13C U36G | 0.201
28 | A13G C66U | 0.756
29 | A13G C66A | 0.295
30 | A13G G31C | 0.241
31 | A13C C45U | 0.876
32 | A13C U67A | 0.783
33 | A13C U67C | 0.706
34 | C12U G68C | 1.01
35 | A13G A42G | 0.855
36 | A13G A42C | 0.647
37 | C12U G56U | 0.802
38 | C12U G56C | 0.554
39 | C12U C45G | 0.98
40 | C12U C45U | 1.01
41 | A13C C22G | 0.149
42 | A13C C22A | 0.0721

Row | Variant | self-cleavage
43 | A13C G19A | 0.109
44 | A13C G19C | 0.107
45 | C12U U69A | 1.02
46 | C12U U69G | 1.05
47 | C12U U67C | 0.978
48 | C12U G41C | 0.617
49 | C12U G41A | 0.716
50 | A13G A51U | 0.905
51 | A13G A51G | 0.843
52 | C12U C27G | 0.174
53 | A13C C27G | 0.048
54 | A13G A40C | 0.306
55 | A13G C54U | 0.937
56 | C12U C39A | 0.756
57 | C12U A15C | 0.389
58 | A13C A42C | 0.602
59 | A13C G48A | 0.957
60 | A13C G48U | 0.934
61 | A13C G48C | 0.917
62 | A13C C35A | 0.281
63 | A13C A52G | 0.823

Row | Variant | self-cleavage
64 | A13G C57A | 0.448
65 | C12U A52U | 0.952
66 | A13G C39A | 0.602
67 | A13G G19C | 0.13
68 | A13C G37C | 0.156
69 | A13G C35A | 0.167
70 | A13G C35U | 0.952
71 | A13C U38C | 0.668
72 | A13C U38G | 0.0833
73 | A13C U38A | 0.679
74 | A13C G47A | 0.922
75 | C12U | 0.996
76 | A13C G17U | 0.125
77 | C12U C22A | 0.2
78 | A13C U55A | 0.315
79 | A13C U55G | 0.322
80 | C12U U46G | 1
81 | A13C C34U | 0.929
82 | A13C C34A | 0.511
83 | A13C A51U | 0.744
84 | A13C A51C | 0.827
